# B1: CPEB3 Ribozyme (parent)
# chain: GGGGGCCACAGCAGAAGCGUUCACGUCGCGGCCCCUGUCAGAUUCUGGUGAAUCUGCGAAUUCUGCUGU
# Variants of: B1
# Experiment: self-cleavage, relative activity (ratio to wild type); higher = more cleavage; co-transcriptional
row,Variant,self-cleavage
1,GGGGGCAACAGCAGAAGCGUUCACGUCGCGGCCCCUGUCAGAUUCUGGUGAAUCUGCGAAUUCUGCUCU [C7A G68C],0.923
2,GGGGGCGACAGCAGAAGCGUUCACGUCGUGGCCCCUGUCAGAUUCUGGUGAAUCUGCGAAUUCUGCUGU [C7G C29U],0.0696
3,GGGGGCGACAGCAGAAGCGUUCACGUCGAGGCCCCUGUCAGAUUCUGGUGAAUCUGCGAAUUCUGCUGU [C7G C29A],0.102
4,GGGGGCGACAGCAGAAGCGUUCACGUCGGGGCCCCUGUCAGAUUCUGGUGAAUCUGCGAAUUCUGCUGU [C7G C29G],0.125
5,GGGGGCGACAGCAGAAGAGUUCACGUCGCGGCCCCUGUCAGAUUCUGGUGAAUCUGCGAAUUCUGCUGU [C7G C18A],0.0277
6,GGGGGCAACAGCAGAAGCGUUCACGUCGCGGCCCCUGUCAGAUUCUGGUGAAUGUGCGAAUUCUGCUGU [C7A C54G],0.101
7,GGGGGCAACAGCAGAAGCGUUCACGUCGCGUCCCCUGUCAGAUUCUGGUGAAUCUGCGAAUUCUGCUGU [C7A G31U],0.598
8,GGGGGCAACAGCAGAAGCGUUCACGUCGCGGCCCCUUUCAGAUUCUGGUGAAUCUGCGAAUUCUGCUGU [C7A G37U],0.0728
9,GGGGGCAACAGCAGAAGCGUUCACGUCGCGGCCCCUCUCAGAUUCUGGUGAAUCUGCGAAUUCUGCUGU [C7A G37C],0.122
10,GGGGGCAACAGCAGAAGCGUUCACGUCGCGGCCCCUAUCAGAUUCUGGUGAAUCUGCGAAUUCUGCUGU [C7A G37A],0.133
11,GGGGGCAACAGCAGAAGCGUUCACGUCGCGGCCCCUGUCAGAUUCUGGUGAAUCUGCCAAUUCUGCUGU [C7A G58C],0.464
12,GGGGGCAACAGCAGAAGCGUUCACGUCGCGGCCCCAGUCAGAUUCUGGUGAAUCUGCGAAUUCUGCUGU [C7A U36A],0.127
13,GGGGGCAACAGCAGAAGCGUUCACGUCGCGGCCCAUGUCAGAUUCUGGUGAAUCUGCGAAUUCUGCUGU [C7A C35A],0.126
14,GGGGGCAACAGCAGAAGCGUUCACGUCGCGGCCCCUGUCAGAUUCUGGUGAAUCUGGGAAUUCUGCUGU [C7A C57G],0.179
15,GGGGGCGACAGCAGAAGCGUUCACGUCGCGGCCCCUGUCAGAUUCUGGUGAAUCUGCGUAUUCUGCUGU [C7G A59U],0.167
16,GGGGGCGACAGCAGAAGCGUUCACGUCGCGGCCCCUGUCAGAUUCUGGUGAAUCUGCGCAUUCUGCUGU [C7G A59C],0.148
17,GGGGGCGACAGCAGAAGCGUUCACGUAGCGGCCCCUGUCAGAUUCUGGUGAAUCUGCGAAUUCUGCUGU [C7G C27A],0.11
18,GGGGGCAACAGCAGAAGCGUUCACGUCGCGGCCCCUGUCAGAUUCUGGUGAAUCUGCGAAUUGUGCUGU [C7A C63G],0.303
19,GGGGGCAACAGCAGAAGCGUUCACGUCGCGGCCCCUGUCAGAUUCUGGUGAAUCUGCGAAUUAUGCUGU [C7A C63A],0.149
20,GGGGGCAACACCAGAAGCGUUCACGUCGCGGCCCCUGUCAGAUUCUGGUGAAUCUGCGAAUUCUGCUGU [C7A G11C],0.305
21,GGGGGCAACAGCAGAAGCGUUCACGUCGCGGCCCCUGUCAGAUUCUGGUGAAUCUGCGAAUUCCGCUGU [C7A U64C],0.336
22,GGGGGCAACAGCAGAAGCGUUCACGUCGCGGACCCUGUCAGAUUCUGGUGAAUCUGCGAAUUCUGCUGU [C7A C32A],0.165
23,GGGGGCAACAGCAGAAGCGUUCACGUCGCGGCCCCUGUCAAAUUCUGGUGAAUCUGCGAAUUCUGCUGU [C7A G41A],0.255
24,GGGGGCAACAGCAGAAGCGUUCACGUCGCGGCCCCUGUCAUAUUCUGGUGAAUCUGCGAAUUCUGCUGU [C7A G41U],0.214
25,GGGGGCGACAGCAAAAGCGUUCACGUCGCGGCCCCUGUCAGAUUCUGGUGAAUCUGCGAAUUCUGCUGU [C7G G14A],0.0844
26,GGGGGCAACAGCAGAAGCGUUCACGUCGCGGCCCCUGUCAGAUUCUGGUGAAUCUGCGAAUUCUGCUGC [C7A U69C],1

row,Variant,self-cleavage
1,GGGGGCAACAGCAGAAGCGUUCACGUCGCGGCCCCUGUCAGAUUCUGGUGAAUCUUCGAAUUCUGCUGU [C7A G56U],0.357
2,GGGGGCGACAGCAGAAGCGUUCACGUCGCGGCUCCUGUCAGAUUCUGGUGAAUCUGCGAAUUCUGCUGU [C7G C33U],0.253
3,GGGGGCGACAGGAGAAGCGUUCACGUCGCGGCCCCUGUCAGAUUCUGGUGAAUCUGCGAAUUCUGCUGU [C7G C12G],0.223
4,GGGGGCGACAGAAGAAGCGUUCACGUCGCGGCCCCUGUCAGAUUCUGGUGAAUCUGCGAAUUCUGCUGU [C7G C12A],0.0557
5,GGGGGCGACAGUAGAAGCGUUCACGUCGCGGCCCCUGUCAGAUUCUGGUGAAUCUGCGAAUUCUGCUGU [C7G C12U],0.383
6,GGGGGCGACAGCAGAAGCGUUCACGUCGCGGCCCCUGUCCGAUUCUGGUGAAUCUGCGAAUUCUGCUGU [C7G A40C],0.17
7,GGGGGCAACAGCAGAAGCGUUCACGUCGCGGCCCCUGUCAGAUACUGGUGAAUCUGCGAAUUCUGCUGU [C7A U44A],0.447
8,GGGGGCGACAGCAGAAGCGUUCACAUCGCGGCCCCUGUCAGAUUCUGGUGAAUCUGCGAAUUCUGCUGU [C7G G25A],0.107
9,GGGGGCAACAGCAGAAGCGUUUACGUCGCGGCCCCUGUCAGAUUCUGGUGAAUCUGCGAAUUCUGCUGU [C7A C22U],0.139
10,GGGGGCAACAGCAGAAGCGUUAACGUCGCGGCCCCUGUCAGAUUCUGGUGAAUCUGCGAAUUCUGCUGU [C7A C22A],0.0549
11,GGGGGCGACAGCAGAAGCGUUAACGUCGCGGCCCCUGUCAGAUUCUGGUGAAUCUGCGAAUUCUGCUGU [C7G C22A],0.104
12,GGGGGCGACAGCAGAAGCGUUGACGUCGCGGCCCCUGUCAGAUUCUGGUGAAUCUGCGAAUUCUGCUGU [C7G C22G],0.0908
13,GGGGGCAACAGCAGAAGCGUUCACGUCGCGGCCCCUGUCAGAUUCUGGUGAAACUGCGAAUUCUGCUGU [C7A U53A],0.321
14,GGGGGCAACAGCAGAAGCGUUCACGUCGCGGCCCCUGUCAGAUUCUGGUGAACCUGCGAAUUCUGCUGU [C7A U53C],0.274
15,GGGGGCAACAGCAGAAGCGUUCACGACGCGGCCCCUGUCAGAUUCUGGUGAAUCUGCGAAUUCUGCUGU [C7A U26A],0.176
16,GGGGGCGACAGCAGAAGCGUUCACGUCGCGGCCCCUGUCAGAUUCUGGUGAGUCUGCGAAUUCUGCUGU [C7G A52G],0.38
17,GGGGGCGACAGCAGAAGCGUUCACGUCGCGGCCCCUGUCAGAUUCUGGUGAAUCUGCGACUUCUGCUGU [C7G A60C],0.196
18,GGGGGCAACAGCAGAAGCGUUCACGUCGCGGCCCCUGUCAGAUUCUGGUCAAUCUGCGAAUUCUGCUGU [C7A G50C],0.545
19,GGGGGCGACAGCAGAAGCGUUCACGUCGCGGACCCUGUCAGAUUCUGGUGAAUCUGCGAAUUCUGCUGU [C7G C32A],0.0649
20,GGGGGCAACAGCAGAAGCGUUCACGUCGCGGCCCCUGUCAGAUUCUGGUGAAUCUGCGAAUGCUGCUGU [C7A U62G],0.29
21,GGGGGCAACAGCAGAAGCGUUCACGUCGCGGCCCCUGUCAGAUUCUGGUGAAUCUGCGAAUUCUGCAGU [C7A U67A],0.884
22,GGGGGCAACAGCAGAAGCGUUCACGUCGCGGCCCCUGUCAGAUUCUGGUGAAUCUGCGAAUUCUGCGGU [C7A U67G],0.858
23,GGGGGCAACAGCAGAAGCGUUCACGUCGCGGCCCCUGUGAGAUUCUGGUGAAUCUGCGAAUUCUGCUGU [C7A C39G],0.428
24,GGGGGCGACAGCCGAAGCGUUCACGUCGCGGCCCCUGUCAGAUUCUGGUGAAUCUGCGAAUUCUGCUGU [C7G A13C],0.285
25,GGGGGCGACAUCAGAAGCGUUCACGUCGCGGCCCCUGUCAGAUUCUGGUGAAUCUGCGAAUUCUGCUGU [C7G G11U],0.175
26,GGGGGCGACACCAGAAGCGUUCACGUCGCGGCCCCUGUCAGAUUCUGGUGAAUCUGCGAAUUCUGCUGU [C7G G11C],0.157

row,Variant,self-cleavage
1,GGGGGCGACAGCAGAAGCGUUCACGUCGCGGCCCCUGUCAGUUUCUGGUGAAUCUGCGAAUUCUGCUGU [C7G A42U],0.303
2,GGGGGCGACAGCAGAAGCGUUCACGUCGCGGCCCAUGUCAGAUUCUGGUGAAUCUGCGAAUUCUGCUGU [C7G C35A],0.13
3,GGGGGCGACAGCAGAACCGUUCACGUCGCGGCCCCUGUCAGAUUCUGGUGAAUCUGCGAAUUCUGCUGU [C7G G17C],0.112
4,GGGGGCGACAGCAGAAUCGUUCACGUCGCGGCCCCUGUCAGAUUCUGGUGAAUCUGCGAAUUCUGCUGU [C7G G17U],0.0489
5,GGGGGCGAUAGCAGAAGCGUUCACGUCGCGGCCCCUGUCAGAUUCUGGUGAAUCUGCGAAUUCUGCUGU [C7G C9U],0.844
6,GGGGGCAACAGCAGAAGCAUUCACGUCGCGGCCCCUGUCAGAUUCUGGUGAAUCUGCGAAUUCUGCUGU [C7A G19A],0.14
7,GGGGGCAACAGCAGAAGCGUUCACGUCGCGGCCCCUGUCAGAUUCUGGUGAAUCUGCGAAAUCUGCUGU [C7A U61A],0.169
8,GGGGGCAACAGCAGAAGCGUUCACGUCGAGGCCCCUGUCAGAUUCUGGUGAAUCUGCGAAUUCUGCUGU [C7A C29A],0.0674
9,GGGGGCAACAGCAGAAGCGUUCACGUCGCGGCCCCUGUCAGAUUAUGGUGAAUCUGCGAAUUCUGCUGU [C7A C45A],0.485
10,GGGGGCAACAGCAGAAGCGUUCACGUCGCGGCCCCUGUCAGAUUUUGGUGAAUCUGCGAAUUCUGCUGU [C7A C45U],0.566
11,GGGGGCAACAGCAGAAGCGUUCACGUCGCGGCCCCUGGCAGAUUCUGGUGAAUCUGCGAAUUCUGCUGU [C7A U38G],0.0677
12,GGGGGCGACAGCAGAAGCGUUCACGUCACGGCCCCUGUCAGAUUCUGGUGAAUCUGCGAAUUCUGCUGU [C7G G28A],0.0296
13,GGGGGCGACAGCAGAAGCGUUCAAGUCGCGGCCCCUGUCAGAUUCUGGUGAAUCUGCGAAUUCUGCUGU [C7G C24A],0.0945
14,GGGGGCAACAGCAGAAGCGUUCACGUCGCGGCCCCUGUCAGAUUCUUGUGAAUCUGCGAAUUCUGCUGU [C7A G47U],0.637
15,GGGGGCAACAGCAGAAGCGUUCACGUCGCGGCCCCUGUCAGAUUCUCGUGAAUCUGCGAAUUCUGCUGU [C7A G47C],0.593
16,GGGGGCAACAGCAGAAGCGUUCACGUCGCGGCCCCUGUCAGAUUCUAGUGAAUCUGCGAAUUCUGCUGU [C7A G47A],0.612
17,GGGGGCGACAGCAGAAGCGUUCACGUCGCGGCCCCUGUCAGAUUCUGGUGAAUCUGAGAAUUCUGCUGU [C7G C57A],0.146
18,GGGGGCAACAGCAGAAGCGUUCACGUCGCGGCCCCUGUCAGAUUCAGGUGAAUCUGCGAAUUCUGCUGU [C7A U46A],0.6
19,GGGGGCAACAGCAGAAGCGUUCACGUCGCGGCCCCUGUCAGAUUCUGCUGAAUCUGCGAAUUCUGCUGU [C7A G48C],0.681
20,GGGGGCAACAGCAGAAGUGUUCACGUCGCGGCCCCUGUCAGAUUCUGGUGAAUCUGCGAAUUCUGCUGU [C7A C18U],0.224
21,GGGGGCGACAGCAGUAGCGUUCACGUCGCGGCCCCUGUCAGAUUCUGGUGAAUCUGCGAAUUCUGCUGU [C7G A15U],0.0664
22,GGGGGCGACAGCAGAAGCGUUCUCGUCGCGGCCCCUGUCAGAUUCUGGUGAAUCUGCGAAUUCUGCUGU [C7G A23U],0.645
23,GGGGGCGACAGCAGAAGCGUUCGCGUCGCGGCCCCUGUCAGAUUCUGGUGAAUCUGCGAAUUCUGCUGU [C7G A23G],0.333
24,GGGGGCGACAGCAGAAGCCUUCACGUCGCGGCCCCUGUCAGAUUCUGGUGAAUCUGCGAAUUCUGCUGU [C7G G19C],0.106
25,GGGGGCAACAGCAGAAGCGUUCACGUCGCGGCCCCUGUCAGAAUCUGGUGAAUCUGCGAAUUCUGCUGU [C7A U43A],0.266
26,GGGGGCAACAGCAGAAGCGUUCACGUCGCGGCCCCUGUCAGAGUCUGGUGAAUCUGCGAAUUCUGCUGU [C7A U43G],0.373

# Reference: the RNAGym collection of RNA variant scans (doi:10.7554/elife.80360)
